# B1: recombinant mouse full-length prion protein, MoPrP (23-231), unexposed (natural protein)
# chain: not shown
# Target: the molecule itself
# Assay: thioflavin T fluorescence + AFM (de novo amyloid fibril formation)
protein,measurement,value
B1,binding result,binds
